In paper PMC9249326 (2022) one finds Kd and koff data, which are given here for one molecule.

As usually defined, the Kd is the equilibrium constant for the complex coming apart. The low end stands for tighter binding, the high end for weaker binding. In general, koff refers to a measure of how fast the partners let go of each other.

Assay [1] concerns the target T1, 6xHis-tagged human NGF (nerve growth factor) (human, UniProt P01138 19-241). Put plainly: BLI. In general terms: In BLI a coated tip is dipped into the sample, and binding shifts an interference pattern.
Assay [2] deals with T1, 6xHis-tagged human NGF (nerve growth …). Put plainly: BLI. The source holds these as a separate data set.

T1 sequence (P01138 122-241): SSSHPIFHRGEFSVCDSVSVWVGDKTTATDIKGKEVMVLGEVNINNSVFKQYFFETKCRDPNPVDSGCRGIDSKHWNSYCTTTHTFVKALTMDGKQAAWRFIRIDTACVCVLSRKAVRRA

B1: tanezumab (antibody, V domains shown)
VH: QVQLQESGPGLVKPSETLSLTCTVSGFSLIGYDLNWIRQPPGKGLEWIGIIWGDGTTDYNSAVKSRVTISKDTSKNQFSLKLSSVTAADTAVYYCARGGYWYATSYYFDYWGQGTLVTVSS
VL: DIQMTQSPSSLSASVGDRVTITCRASQSISNNLNWYQQKPGKAPKLLIYYTSRFHSGVPSRFSGSGSGTDFTFTISSLQPEDIATYYCQQEHTLPYTFGQGTKLEIK
Consider B1, for which the Kd in assay [1] is < 1 pM. Moreover, the koff in assay [2] was < 1e-07 s⁻¹.
